Patent publication US9555076B2, “Neuregulin based methods and compositions for treating cardiovascular diseases” (Zensun (Shanghai) Science & Technology, Co., Ltd., priority 2002, dated 2017)

Key:
[1] = test system: phosphorylation of ErbB2 protein, MCF-7 cells; assay: In vitro determination of NRG-1 activity (ELISA test for kinase receptor activation); assay type: cell-based, human
From the text: Quantity of standard product that can induce 50% maximal reaction is defined as an activity unit (1U). Accordingly, product from different pharmaceuticals and of different batch number can be quantitated with uniform criteria.
HER2/neu gene encodes a trans-membrane protein p185, which is a tyrosine protein kinase. Binding of Neuregulin-1 with ErbB3 or ErbB4 induces heterodimer ErbB3-ErbB2 and ErbB4-ErbB2 formation and activates HER2 encoded tyrosine protein kinase, mediating the transmission of functioning signal of Neuregulin-1. Based on the fact that binding of Neuregulin-1 with its receptors triggers phosphorylation of ErbB2 protein, we establish a rapid, sensitive and high flux method for in vitro quantitatively determining biological activity of Recombinant Neuregulin-1.
150 mM NaCl+50 mM Hepes+1% Triton-X 100+2 mM (sodium orthovanadate)+0.01% (thimerosol). […]
Wash the plate 5 times, dilute HRP enzyme linked mouse anti-phosphorylated tyrosine protein antibody with 1:500 lotion (determined by the product using guide and the using time), add 100 μl into each hole of the plate. […]
Colorimetric analysis on the ELISA reader, determine wave length of 450 nm, reference wave length of 655, record the results. […]

[2] = test system: heart failure in rat caused by ligation of coronary artery; assay: Nagar-Oslen staining of ischemic hypoxic myocardium; assay type: in vivo, SD rat
From the text: After fixed with 10% formaldehyde, myocardium of the rat was longitudinally cut with equal distance into 3 slices, conventionally embedded with paraffin, section made, HE stained, image analysis for area of fibrotic region of the heart, counted the number of capillary in the fibrotic lesion (counting unit: piece/mm^2); Nagar-Oslen stained, studied the size of ischemic hypoxic region in the myocardium.
In Nagar-Oslen stained section, normal myocardium stained with light yellow color, while ischemic hypoxic area stained deeper with reddish color. Ischemic hypoxic changes could be analyzed with this method and comparison of qualitative and semi-quantitative test could be made.

[3] = test system: toxic myocarditis caused by Adriamycin in rat; assay: Heart size (heart weight/body weight, wall thickness), Adriamycin rat model; assay type: in vivo, SD rat; conditions: Adriamycin model
Experimental: Heart was extirpated after thoracotomy (auricle should be reserved), the heart weight was measured after dried with absorbent paper, ratio of heart weight/body weight calculated; outer diameter of the heart was measured at ½ site of the vertically standing heart; medium part of the left ventricle was crosswise cut open, maximal thickness of free wall of the left ventricle measured; the heart was fixed with 10% formaldehyde, paraffin embedded and HE stained, observation of the myocardial structure carried out under optic microscope, give out pathologic score.

B1: rhNRG-1 β: Recombinant human neuregulin fragment of 61 amino acid (SEQ ID NO:4), 3 disulfide bonds, expressed in E. coli (protein, listed as Homo sapiens)
chain: SHLVKCAEKEKTFCVNGGECFMVKDLSNPSRYLCKCPNEFTGDRCQNYVMASFYKAEELYQ
modifications: disulfide (positions not given here)
[1]; batch number 200210024
  specific activity: 1.12×10^4 U/mg
[1]; purified recombinant neuregulin from engineered strain
  specific activity: more than 5×10^3 EU/mg
[2]; 5 μg/kg
  red stained (ischemic hypoxic) tissue, Nagar-Oslen stain: patchy distribution
[2]; 10 μg/kg
  red stained (ischemic hypoxic) tissue, Nagar-Oslen stain: patchy distribution
[2]; 20 μg/kg
  red stained (ischemic hypoxic) myocardial cells, Nagar-Oslen stain: punctuate distribution
[3]; 10 μg/kg iv qd × 10 d, (I)
  Heart weight/body weight: 0.00301 ± 0.0002
  Left ventricle wall thickness: 1.773 ± 0.115 mm
[3]; 10 μg/kg iv qd × 10 d, (II)
  Heart weight/body weight: 0.00307 ± 0.000
  Left ventricular wall thickness: 2.18 ± 0.21 mm
[3]; 20 μg/kg iv qd × 10 d, (I)
  Heart weight/body weight: 0.0032 ± 0.0001
  Left ventricle wall thickness: 1.789 ± 0.133 mm
[3]; 20 μg/kg iv qd × 10 d, (II)
  Heart weight/body weight: 0.00303 ± 0.000
  Left ventricular wall thickness: 2.15 ± 0.24 mm
[3]; 40 μg/kg iv qd × 10, (II)
  Heart weight/body weight: 0.00297 ± 0.000
  Left ventricular wall thickness: 2.06 ± 0.2 mm
[3]; 40 μg/kg iv qd × 10 d, (I)
  Heart weight/body weight: 0.0031 ± 0.0002
  Left ventricle wall thickness: 1.813 ± 0.12 mm
